Experimental data reported in publication PMC6901440.

Legend:
Bcl-2 = Bcl-2 (UniProt P10415); assay: anti-Flag co-IP, Bcl-2 blot; conditions: reference: wild-type MLKL with RIP3; sites T357,S358
[1] = target: Flag-MLKL T357D/S358E phosphorylation mimic (human) (UniProt Q8NB16); assay: immunoblot of oligomers in cytosol and membrane fractions; HEK-293T cells transfected with Flag-MLKL constructs, with or without RIP3, Bcl-2 or Bcl-2 G145A; Triton X-114 detergent phase separation; oligomers seen by immunoblot (gel conditions not told)
Sequence of Flag-MLKL T357D/S358E phosphorylation mimic (human) (Q8NB16 whole entry T357D/S358E): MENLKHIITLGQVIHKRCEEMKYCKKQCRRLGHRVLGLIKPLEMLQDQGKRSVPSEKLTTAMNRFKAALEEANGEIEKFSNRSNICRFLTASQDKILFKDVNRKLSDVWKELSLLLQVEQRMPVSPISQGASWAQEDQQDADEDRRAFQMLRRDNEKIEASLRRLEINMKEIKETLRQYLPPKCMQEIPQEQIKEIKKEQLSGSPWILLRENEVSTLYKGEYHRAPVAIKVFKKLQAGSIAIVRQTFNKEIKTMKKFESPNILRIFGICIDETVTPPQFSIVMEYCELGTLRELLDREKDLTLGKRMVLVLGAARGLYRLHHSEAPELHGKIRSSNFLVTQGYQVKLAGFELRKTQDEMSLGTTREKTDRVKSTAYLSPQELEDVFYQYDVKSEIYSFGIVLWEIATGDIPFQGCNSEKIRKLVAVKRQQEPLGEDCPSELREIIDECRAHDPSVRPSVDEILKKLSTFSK

Sequence of Bcl-2 (transfected, HEK-293T) (P10415 whole entry): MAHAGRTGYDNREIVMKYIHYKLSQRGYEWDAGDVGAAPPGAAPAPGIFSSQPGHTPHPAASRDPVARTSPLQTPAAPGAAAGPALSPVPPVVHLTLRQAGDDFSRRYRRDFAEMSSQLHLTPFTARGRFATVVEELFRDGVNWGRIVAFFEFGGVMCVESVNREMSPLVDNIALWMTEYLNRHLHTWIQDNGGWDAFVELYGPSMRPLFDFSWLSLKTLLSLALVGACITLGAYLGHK

Substance	binding against the reference (Bcl-2)	percent decrease of MLKL oligomerization [1]
MLKL (from UniProt Q8NB16) T357A/S358A with RIP3	weaker	
Bcl-2 (transfected, HEK-293T) (from UniProt P10415 1-239)		30%
